Test results published in PMC5148593, “Using the Amino Acid Network to Modulate the Hydrolytic Activity of β-Glycosidases” (PLoS ONE, 2016).

Substrate: O=[N+]([O-])c1ccc(O[C@@H]2O[C@H](CO)[C@@H](O)[C@H](O)[C@H]2O)cc1
Assay: purified protein
Assay type: biochemical, Spodoptera frugiperda
Settings: 100 mM sodium citrate-sodium phosphate pH 6.0, 30°C

B1: Sfβgly (Spodoptera frugiperda) (protein)
chain: QQRRFPDDFLFGTATASYQIEGAWDEDGKGENIWDYMVHNTPEVIRDLSNGDIAADSYHNYKRDVEMMRELGLDAYRFSLSWARILPTGMANEVNPAGIAFYNNYIDEMLKYNITPLITLYHWDLPQKLQELGGFANPLISDWFEDYARVVFENFGDRVKMFITFNEPREICFEGYGSATKAPILNATAMGAYLCAKNLVTAHAKAYYLYDREFRPVQGGQCGITISVNWFGPATPTPEDEMAAELRRQGEWGIYAHPIFSAEGGFPKELSDKIAEKSAQQGYPWSRLPEFTEEEKAFVRGTSDLIGVNHYTAFLVSATERKGPYPVPSLLDDVDTGSWADDSWLKSASAWLTLAPNSIHTALTHLNNLYNKPVFYITENGWSTDESRENSLIDDDRIQYYRASMESLLNCLDDGINLKGYMAWSLMDNFEWMEGYIERFGLYEVDFSDPARTRTPRKAAFVYKHIIKHRVVDYEYEPETMVMTIDEGH
notes: kinetics: gene in pAE plasmid, E. coli NovaBlue (DE3), Ni-NTA purified (His tag kept); mature protein 21-509 (borders printed for the P. pastoris pPIC9 crystal construct, 5CG0, glycosylated at N206); monomer-dimer equilibrium
- Km: 2.3 mM
- kcat: 0.61 s⁻¹
